Results reported in paper PMC5489213.

How the values were obtained:
[1] = target: mouse adenovirus 2 (MAdV-2), wild type virus particle (mouse adenovirus 2)
[2] = target: MAdV-2.IXeGFP virus particle (replication competent MAdV-2 with enhanced green fluorescent protein fused to minor capsid protein IX) (mouse adenovirus 2 | not stated)
[3] = target: MAdV-2.IXeGFP virus particle (replication competent MAdV-2 with enhanced green fluorescent protein fused to minor capsid protein IX) (mouse adenovirus 2 | not stated); remark: listed apart in the source

Molecule | infection of CMT-93 cells by MAdV-2 pre-incubated with cryptdin 2 (dose-responsive over the indicated concentrations), relative to infection without defensin [1] [fold] | infection of CMT-93 cells by MAdV-2.IXeGFP pre-incubated with cryptdin 2 (dose-responsive over the indicated concentrations), relative to infection without defensin [2] [fold] | infection of CMT-93 cells by MAdV-2.IXeGFP pre-incubated with cryptdin 3 (indicated concentrations), relative to infection without defensin [3] [fold]
Cryptdin 2 (peptide) | 1.8 | 2.4 | –
LRDLVCYCRKRGCKRRERMNGTCRKGHLMYTLCCR [Cryptdin 3] | – | – | 1.7
